Measurements taken from the nanobody polyreactivity screen of Harvey et al. (2022).

assay: yeast display, Sf9 membrane polyspecificity reagent, FACS + sequencing; frameworks hold sequencing errors
Summary of the method: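 A synthetic nanobody library was expressed on Saccharomyces cerevisiae BJ5465 by galactose induction for 36–48 hours. The library was stained for 1 hour at 4 °C with 10% biotinylated, detergent-solubilized Sf9 membrane reagent and enriched with streptavidin microbeads before FACS. Low and high (top ~1%) gates were set on anti-HA fluorescence for expression and streptavidin fluorescence for reagent binding, and each polyreactivity label reflects the gate of origin.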

Sequence | polyreactivity (PSR sort gate)
QVQLVVSGGGLVQAGGSLRLSCAASGIIFVQYTMGWYRQAPGQERELDAAITRGGNTYYADSVKGRFTISRDNAKNTVYLQMNSLKPEATAVYYCNKAYWYANLRYRTGVKLQFYYWGQGTQVNVSS | high polyreactivity
QVQLVVSGGGLVQAGGSLRLSCAASGITFFPYAMGWYRQAPGKERLLVASISDRGGTNYADSVKGRFTISRDNAKNTVYLQMNSLKPEDTAVYYSASDASTYAYYGGDYWGQGTQVTVSS | low polyreactivity
QVQLVVSGGGLVQAGGSLRLSCAASGITFYEYAMGWYRQAPGKERELVAAISSSGCTTYYADSVKGLFTISRDNAKNTVYLQLNSLKPEDTAVYYCAVGQRFAIWGPQGSYFYFESDYWGQGTQVTVSS | low polyreactivity
QVQLVVSGGGLVQAGGSLRLSCAASGRIFLWNAMGWYRQAPGKERDLVAAISSGGGTNYADSVKGRFTISRDNAKNSVYLQMNSLKPEDTAVYYCAARRTYRFGWGQGTQVTVSS | high polyreactivity
QVQLVVSGGGLVQAGGSLRLSCAASGSIFVPYAMGWYRQAPGKEREFVAAITRSSGSTYYADSVKGRFTISRDNAKNTVYLQMNSLKPEDTAVYYCAADFLLEFDYWGQGTQVTVSS | low polyreactivity
QVQLVVSGGGLVQAGGSLRLSCAASGSIFYRNAMGWYRQAPGKDRELVAAISFSGGSTYYADSVKARFSISRDNAKNTVYLQMNSLKPEDTAVYYCAAEAYPSWFYVITGFGIYDYWGQGTQGTVSS | high polyreactivity
QVQLVVSGGGLVQAGGSLRLSWAASGIIFYEYAMGWYRQAPGTERELVAAITWSGRTYADSVKGRFTISRDNAKNTVYLQMNSLKPEDTAVYYCNAVYFGGPFFGQYNYWGQGTQVTVSS | low polyreactivity
QVQLVVSGGGLVQEGGSLRLSCAAYGNTFFVYAMGGYRQAPGKERELDASITLSGDTTYYADSVKGRFTISRDNAKNPVYLQMNSLKPEDNAVYYCAAKDIRYDDDYWGQGTQVNVSS | low polyreactivity
QVQLVYSGGGLVQAGGSLRLSCAASGIIFGVNAMGWYRQAPGKERELVAAISSSGGSTYYADSVKGRFTISRDNAKNTVYLQMNSLKPEDTAVYYCAASYYHYAPFDYWGQGTQVTVSS | high polyreactivity
QVQLVYSGGGLVQAGGSLRLSCAASGSTFYRYAMGWYRQAPGKERELVATITRSGGSTYYADSVKGRFTISRDNAKNTVYLQMNRLKPEDTAVYYCAVRLWFYYNYWGQGTQVTVSS | low polyreactivity
QVQNVDSGGGLVQAGGSLRLSCPPSGISYRGYAMGWYRQAPGKERELVAAISVRGASTYYAASVKGRFTISRDNAKYTVYLPMNSLKPEDTAVYYCGATRPSWRYNYWGQGTEVTVSS | high polyreactivity
QVQPQESGVGLVQAGGSLRLSCAASGTIFAFQTMGWYRQAPGKERELVASITYGSSTNYADSVKGRFTISRDNAKNTVYLLMNRLKPEDTAVYYCAVPQAQYYYDYWGQGTQVTVSS | high polyreactivity
QVQPVESGGGLVQAGGSLRLSCAASGFIFSSYAMGWYRQAPGKERELVAAITSGGSTNYADSVKGRFTISRDNAKNTVYLQMNSMKPEDTAVYYCATVPGGSWFFHWWSTGGDDEYWGQGTQVTVSS | low polyreactivity
QVQPVESGGGLVQAGGSLRLSCAASGIIFISYDMGWYRQAPGKERELVARINWDGGSTYYADSVKGRFTISRDNAKNTVYLQMNSLKPEDTAVYYCAAGFVGTNYPLQGFSYEYWGQGTQVTVSS | low polyreactivity
QVQPVESGGGLVQAGGSLRLSCDASGRIFYEYAMGRSRQAPGKERELVAISTSGGNTYYADSVKGRFTISRDNAKNTVYLQMKSLKPEDTEVYYCAKRGYRAYYWGQGTLVTVSS | high polyreactivity
QVQQLESGGGLVQAGGSLRLSSAASGTIFRISDMGSYRQAPGTEREFVAAITYGANTYYADSGKGRFTISRDNAKNTVYRQMNSLKPDDTAVYDCAVPPVKESILDYWGQGTQVTVSR | low polyreactivity
QVQQQESGGGLVQAGGSLRLSCAASGTIFQLTVMGRYRQASGKERELVASIDYGGNTNYADSVKGRFTISRDNAKNTVYLQMNSLKPEDTAVYYCEASSDSWTTHPYWGQGTQVTVSS | low polyreactivity
QVQQQESGGGLVQAGVSLRLSWAASGTIFQLTVMGRYRQAPGKEREVVASIDYGGNTNYADSVKGRFTISRDNAKNTVYRQMNSLKPEDTAVYYCAASSDSSTTHPYWGQGTHVTVSS | low polyreactivity
QVQRQESGGGLVQAGDSQRLSCAPSGNIFRFTDMGWYRQAPGQERELVAAINAGSTTYYADSVKGRFTISRDNAKNTVYLQMNSLKPEDTAVYYCAVYYLGSGTFGYWGQGAQVTVSS | high polyreactivity
QVQRVDSGGGLVQAGGSLRLSCAASGFTFAVYAMGWYRQSPGKERELVAAISRSGTRTYYADSVKGRFTISRDNAKNTVYLQMNSLKPEDTAVYYCAADKYRLGYDYWGQGTQLTVSS | low polyreactivity
QVQRVDSRGGLVQAGGSLRLSCAASGRIFRPNAMGWYRQAHGKQRELVAAITSNGGRTYYADSVKGRFTISRDNAKYTVYLQMNSLKPEDTAVYYCNAAPFRSGDGYWGQGTQVTVSS | high polyreactivity
QVQRVESAGGLVQAGGSLRLSCAASGSTFLYNAMGWYRQAPGKERELVAAISWSGGSTYYADSVKGRFTISRDNAKNTVYLQMNSLKPEDTAVYYCAKPRSWGYNWGQGTQVTVSS | high polyreactivity

Sequence | polyreactivity (PSR sort gate)
QVQRVESGGALVQAGGSLRLSCAASGRIFGGYAMGWYRQAPGKERELVAAISSRGGSTYYADSVKGRFTISRDNAKNTVYLQMNSLKPEDTAVYYCAADGRVKGWGQGTQVTVSS | high polyreactivity
QVQRVESGGALVQAGGSLRLSCAASGSTFYAYAMGWYRPAPGKERELVAAITYRDGRTYYADSVKGRFTISRDNAKNTVYLQMNRLKQEDTAVYYCARKTGFTVRRYDYWGHGTQVTVSS | high polyreactivity
QVQRVESGGGFVQAGGSLRLSSAASGFTFGAYAMGWYRQAPGKEMELVASISWSGGSTYYADSVKGRFTISRVNAKNTVYLQMNSLKPEDTAVYYCNKDFVYPDDDGLFDYWGQGTQVTVSS | low polyreactivity
QVQRVESGGGLFQAGGSLRLSCAASGITFRYYNMGWYRQAPGKERELVAAISSSGGSTYYADSVKGRFTISRDNAKNTVYLQMNSLKPEDTAVYYCAAESKYSTSSPRRDYWGQGTQVTVSS | high polyreactivity
QVQRVESGGGLVKAGGRLRLSSAASGGTFKRYTMGWYRQAPGKETELVARIHYRTGSTYYADSVKGRFTISRDNAKNTVYLQMNSLKPEDTAVYYCAAREWYGFAFDYWGQGTQVTVSS | high polyreactivity
QVQRVESGGGLVQAAGSLRLSCAASGRTFIYYAKGWYRHEPGKERELVAGISRNGGRTYYADSVKGRFTISRDNAKNTVYLQMNSLKPEDTAVYYCNAYPPSRHDYCGQGTQVTVSS | high polyreactivity
QVQRVESGGGLVQAGASLRLSCAASGSTFDPYAKGWYRQAPGKERELVAAISGRGGSTYYADSVKGRFTISRDNAKNTLYLQMNSLKPEDTADYYCNAEGEYRRDRYDYWGQGTQVTVSS | low polyreactivity
QVQRVESGGGLVQAGASLRLSCSASGRTFSRYAMGWYRQAPGKERELVAAIRGNSGNTYYADSVKGRFTISRDNAKNTVYLQMNSLKPEDTAVYYCAKPFNIWGQGTQVTVSS | high polyreactivity
QVQRVESGGGLVQAGGRLRLTCAASARIIRWYAMGWNRQAPGKERELVAAISGSGGSTYYADSVKGRFTISRDNAKNTVYLQMNSLKPEDTAVYYCAKDRDPVRAHDCWGQGTQVTVSS | high polyreactivity
QVQRVESGGGLVQAGGSLRLSCAASGFIFWRYAMGWYRQAPGKERELVATITSSGGTTHYADSVKGRFTISRDNAKNTVYLQMNSLKPEDTAVYYCAKALVVQYGRYTGHPYDYWGQGTQVTVSS | high polyreactivity
QVQRVESGGGLVQAGGSLRLSCAASGFTFESYAMGWYRQAHGKERELVAAITWDGGSTYYADSVKGRFTISRDNAKNTVYLQMNSLKPEDTAVYDCAADFGTISIDVYSWMDYWGQGTQVTGSS | low polyreactivity
QVQRVESGGGLVQAGGSLRLSCAASGFTFRWYAMGWYRQAPGKEREMVAAISRSGASTYYADSVKGRFTISRDNAKNTVYLQMNSLKPEDTAVYYCAVLWHGRRPLYKLRTGPEYDYWGQGTQVTVSS | high polyreactivity
QVQRVESGGGLVQAGGSLRLSCAASGFTFVPYALGWYRPAPGQERELVAAISGSGGSTYYADSVKGRFTISRDNEKNTVYLQMNSLKPEDTAVYYCNADRRWAYYWGQGTQVTVSS | high polyreactivity
QVQRVESGGGLVQAGGSLRLSCAASGIIFDRYAMGWYRPAPGKERELVAAISSSGGSTYYADSVKGRFTISRDNAKNTVYLQMISLKPEATAVYYCNARHRQWARGYWGQGTQVTVSS | high polyreactivity
QVQRVESGGGLVQAGGSLRLSCAASGITFRGYAMGWYRQAPGKERELVAAINSRGGSTYYADSVKGRFTISRDNAKNTVYLQMNSLKPEDTAVYYCATRSFGRMDYWGQGTQVTVSS | high polyreactivity
QVQRVESGGGLVQAGGSLRLSCAASGLIFVVYAMGWYRQAPGKERELVADISSGGRTSYADSVKGRFTISRDNAKNTVYLQMNSLKPEDTAVYYCNAYPVFNQYYGWRYDYWGQGTQVTVSS | low polyreactivity
QVQRVESGGGLVQAGGSLRLSCAASGNTFWLNAMGWYRQAPGKERELVAAITYTDGSTYADSVKGRFTISRDNAKNTVYLQMNSLKPEDTAVYYCAARYQWDWRDYYYWGQGTQVTVSS | low polyreactivity
QVQRVESGGGLVQAGGSLRLSCAASGRIFYFNAMGWYRQAPGKEWELVAVINSSGSTDYADSVKGRFTISRDNAKNTVYLQMNSLKPEDTAVYYCAAEVTPSGYGYWGQGTQVTVSS | low polyreactivity
QVQRVESGGGLVQAGGSLRLSCAASGRILYWYAMGWYRQAPGKERELVAGIDWSGGSTYYADSVKGRFTISRDKAKTTVYLQMNSLKPEDTAVYYCNAAQNRGRGSHRGESTYYYSGQGTQVTVSS | low polyreactivity
QVQRVESGGGLVQAGGSLRLSCAASGRTFYGYAMGWYRQAPGKDRELVASISWSTGSTHYADSVKGRFTISRVNAKNTVYVQMNSLKPEATAVYYCAAPFWRDSYVQIDYDYWGQGTQVTVSS | low polyreactivity
QVQRVESGGGLVQAGGSLRLSCAASGRTFYLNAMGWYRQATGKERQLVAAINRGTRTYYADSVKGRFTISRDNAKNTVYLQMNSVKPEDTAVYYCAAVPRYYYSSSYTMDYWGQGTQVTVSS | high polyreactivity
